Source: IntAct's records for PubMed 21320496

B1: Abl interactor 1 (Homo sapiens), Q8IZP0-4 (parent)
chain: MAELQMLLEEEIPSGKRALIESYQNLTRVADYCENNYIQATDKRKALEETKAYTTQSLASVAYQINALANNVLQLLDIQASQLRRMESSINHISQTVDIHKEKVARREIGILTTNKNTSRTHKIIAPANMERPVRYIRKPIDYTVLDDVGHGVKWLKAKHGNNQPARTGTLSRTNPPTQKPPSPPMSGRGTLGRNTPYKTLEPVKPPTVPNDYMTSPARLGSQHSPGRTASLNQRPRTHSGSSGGSGSRENSGSSSIGIPIAVPTPSPPTIGPAPGSAPGSQYGTMTRQISRHNSTTSSTSSGGYRRTPSVTAQFSAQPHVNGGPLYSQNSIADSPTPPPPPPPDDIPMFDDSPPPPPPPPVDYEDEEAAVVQYNDPYADGDPAWAPKNYIEKVVAIYDYTKDKDDELSFMEGAIIYVIKKNDDGWYEGVCNRVTGLFPGNYVESIMHYTD

Variants of: B1
Details: with Abl1, P00520-4
Abl1, P00520-4, sequence (P00520 other isoform, or with tags, fused parts or gaps): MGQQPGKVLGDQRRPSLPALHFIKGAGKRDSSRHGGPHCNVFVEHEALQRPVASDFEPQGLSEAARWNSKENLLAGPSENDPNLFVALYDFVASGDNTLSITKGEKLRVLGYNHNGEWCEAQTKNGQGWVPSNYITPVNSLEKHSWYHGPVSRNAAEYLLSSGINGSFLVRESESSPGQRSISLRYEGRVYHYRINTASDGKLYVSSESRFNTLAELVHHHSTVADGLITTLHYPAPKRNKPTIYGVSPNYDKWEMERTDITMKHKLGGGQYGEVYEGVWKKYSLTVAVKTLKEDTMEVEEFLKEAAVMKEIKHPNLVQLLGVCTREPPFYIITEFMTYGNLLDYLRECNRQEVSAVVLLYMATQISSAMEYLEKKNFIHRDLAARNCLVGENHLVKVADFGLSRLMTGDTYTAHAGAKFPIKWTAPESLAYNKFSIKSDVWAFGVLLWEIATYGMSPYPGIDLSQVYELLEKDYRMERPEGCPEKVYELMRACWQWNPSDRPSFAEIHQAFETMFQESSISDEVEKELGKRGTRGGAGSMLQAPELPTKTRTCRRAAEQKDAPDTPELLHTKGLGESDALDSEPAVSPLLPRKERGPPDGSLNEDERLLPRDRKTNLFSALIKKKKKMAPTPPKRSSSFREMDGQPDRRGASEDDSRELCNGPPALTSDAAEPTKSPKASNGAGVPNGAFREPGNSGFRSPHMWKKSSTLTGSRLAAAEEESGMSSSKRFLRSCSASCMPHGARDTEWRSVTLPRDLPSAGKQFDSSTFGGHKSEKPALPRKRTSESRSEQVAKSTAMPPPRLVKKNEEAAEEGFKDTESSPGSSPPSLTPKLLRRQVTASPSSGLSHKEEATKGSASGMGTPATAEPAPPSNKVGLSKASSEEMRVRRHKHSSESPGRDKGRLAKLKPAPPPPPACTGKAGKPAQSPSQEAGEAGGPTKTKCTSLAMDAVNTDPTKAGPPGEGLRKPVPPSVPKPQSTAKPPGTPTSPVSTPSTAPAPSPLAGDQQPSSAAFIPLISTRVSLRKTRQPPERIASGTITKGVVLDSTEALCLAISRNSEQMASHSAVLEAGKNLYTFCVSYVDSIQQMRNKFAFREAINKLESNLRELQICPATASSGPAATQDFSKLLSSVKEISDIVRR

effect of a mutation on the interaction | Variant
decreasing interaction | Y398F
decreasing interaction | Y213F
